Here are results for 4 molecules from paper PMC2861366 (Biochemistry, 2010).

Values joined by “and” are separate entries in the source; they are usually repeats but may differ in a detail not shown here. Equal values may be shown once. Read-outs that look alike come from different tables or passages of the source.

First the molecules themselves.
B1: E. coli PriA helicase (enzyme, UniProt P17888 1-732, looked up)
chain: MPVAHVALPVPLPRTFDYLLPEGMTVKAGCRVRVPFGKQQERIGIVVSVSDASELPLNELKAVVEVLDSEPVFTHSVWRLLLWAADYYHHPIGDVLFHALPILLRQGRPAANAPMWYWFATEQGQAVDLNSLKRSPKQQQALAALRQGKIWRDQVATLEFNDAALQALRKKGLCDLASETPEFSDWRTNYAVSGERLRLNTEQATAVGAIHSAADTFSAWLLAGVTGSGKTEVYLSVLENVLAQGKQALVMVPEIGLTPQTIARFRERFNAPVEVLHSGLNDSERLSAWLKAKNGEAAIVIGTRSALFTPFKNLGVIVIDEEHDSSYKQQEGWRYHARDLAVYRAHSEQIPIILGSATPALETLCNVQQKKYRLLRLTRRAGNARPAIQHVLDLKGQKVQAGLAPALITRMRQHLQADNQVILFLNRRGFAPALLCHDCGWIAECPRCDHYYTLHQAQHHLRCHHCDSQRPVPRQCPSCGSTHLVPVGLGTEQLEQTLAPLFPGVPISRIDRDTTSRKGALEQQLAEVHRGGARILIGTQMLAKGHHFPDVTLVALLDVDGALFSADFRSAERFAQLYTQVAGRAGRAGKQGEVVLQTHHPEHPLLQTLLYKGYDAFAEQALAERRMMQLPPWTSHVIVRAEDHNNQHAPLFLQQLRNLILSSPLADEKLWVLGPVPALAPKRGGRWRWQILLQHPSRVRLQHIINGTLALINTIPDSRKVKWVLDVDPIEG

For test [1], the target named is B1. The test is described as follows: ITC.
The target of test [2] is T1, χ subunit of DNA polymerase III holoenzyme (E. coli, UniProt P28905 1-147). The test is described as follows: ITC.
Test [3] addresses T1, χ subunit of DNA polymerase III …. The test is described as follows: ITC. The source holds these as a separate data set.
The target in test [4] is B1. The test is described as follows: ITC. The source holds these as a separate data set.
In test [5] the target is B1. As to the kind of experiment: ITC. This is another data set of the same source.
In test [6] the target is E. coli single stranded DNA binding (SSB) protein (E. coli, UniProt P0AGE0 1-178). As to the kind of experiment: AUC.
Test [7] concerns the target B1. The test is described as follows: ITC. The source holds these as a separate data set.
In test [8] the target is T1, χ subunit of DNA polymerase III …. The test is described as follows: ITC. This is another data set of the same source.
Test [9] shares this target. The test is described as follows: ITC. The source holds these as a separate data set.
Test [10] addresses B1. As to the kind of experiment: ITC. The source holds these as a separate data set.
In test [11] the target is B1. As to the kind of experiment: ITC. The source holds these as a separate data set.

T1 sequence (P28905 whole entry): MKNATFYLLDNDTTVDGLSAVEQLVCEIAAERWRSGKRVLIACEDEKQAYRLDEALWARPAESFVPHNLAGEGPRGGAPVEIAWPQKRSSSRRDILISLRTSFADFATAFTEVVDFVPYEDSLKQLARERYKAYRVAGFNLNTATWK
Chain of E. coli single stranded DNA binding (SSB) protein (P0AGE0 whole entry): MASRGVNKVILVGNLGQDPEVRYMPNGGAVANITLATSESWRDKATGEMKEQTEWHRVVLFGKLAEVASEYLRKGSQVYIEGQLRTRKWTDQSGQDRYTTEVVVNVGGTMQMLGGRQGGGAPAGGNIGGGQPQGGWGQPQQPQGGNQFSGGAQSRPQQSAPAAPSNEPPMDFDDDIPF

MDFDDDIPF [P9, synthetic peptide of the last 9 amino acids of the SSB C-terminus]: the Ka with E. coli PriA helicase [1] stood at 180000 M⁻¹; in test [2], 1.6e+06 M⁻¹; in test [3], 800000 M⁻¹; with E. coli PriA helicase [4] it was 2e+06 M⁻¹. For the same molecule, the dH with E. coli PriA helicase [1] is -17.3 ± 0.6 kcal/mol; in test [2] it was -7.9 ± 0.4 kcal/mol; in [3], -8.2 ± 0.4 kcal/mol; with E. coli PriA helicase [4], -6.7 ± 0.3 kcal/mol. In addition, the “stoichiometry N” value in the test with E. coli PriA helicase [1] came to 0.81 ± 0.12; in test [2], 1 ± 0.1; in test [3] it was 0.92 ± 0.04; in the test with E. coli PriA helicase [4], 0.89 ± 0.05.
Consider PSNEPPMDFDDDIPF [P15, synthetic peptide of the last 15 amino acids of the SSB C-terminus], for which the Ka with E. coli PriA helicase [1] was 360000 M⁻¹; in test [2], 1.5e+06 M⁻¹; in the test with E. coli PriA helicase [5], 2.7e+06 M⁻¹; in test [3], 800000 M⁻¹; with E. coli PriA helicase [4] it was 1.6e+06 M⁻¹. Further, the dH in the test with E. coli PriA helicase [1] was -14 ± 0.6 kcal/mol; in test [2] it was -9.5 ± 0.3 kcal/mol; in the test with E. coli PriA helicase [5] it was -20.7 ± 0.8 kcal/mol; in test [3], -7.7 ± 0.4 kcal/mol; with E. coli PriA helicase [4] it was -7 ± 0.5 kcal/mol. Further, the “stoichiometry N” value is 0.92 ± 0.03 with E. coli PriA helicase [1]; 0.91 ± 0.02 in test [2]; 0.9 ± 0.02 with E. coli PriA helicase [5]; 0.88 ± 0.04 in test [3]; 1.03 ± 0.06 in the test with E. coli PriA helicase [4].
As to B1, in [6], the “stoichiometry N” value is at least 3.
Turning to WMDFDDDIPF [WP9, modified P9 peptide containing a Trp residue on the N terminal side], the Ka with E. coli PriA helicase [7] stood at 225000 M⁻¹; in test [8], 300000 M⁻¹; with E. coli PriA helicase [1] it was 230000 M⁻¹; in test [2] it was 1.2e+06 M⁻¹; with E. coli PriA helicase [5], 1.6e+06 M⁻¹; in test [9], 1.6e+06 M⁻¹. The Ka is 3.4e+06 M⁻¹ in the test with E. coli PriA helicase [10]; 410000 M⁻¹ and 404000 M⁻¹ with E. coli PriA helicase [11]. The dH was -13.7 ± 0.2 kcal/mol with E. coli PriA helicase [7]; -9.2 ± 0.4 kcal/mol in test [8]; -13 ± 1.3 kcal/mol with E. coli PriA helicase [1]; -8 ± 0.3 kcal/mol in [2]; -14.5 ± 0.5 kcal/mol with E. coli PriA helicase [5]; -17.6 ± 0.2 kcal/mol in the test with E. coli PriA helicase [10]. Moreover, in the test with E. coli PriA helicase [11], the dH is -13.9 kcal/mol and -14.4 kcal/mol. Besides, the “stoichiometry N” value with E. coli PriA helicase [7] was 1.01 ± 0.1; in test [8], 0.96 ± 0.03; with E. coli PriA helicase [1] it was 1.1 ± 0.1; in test [2] it was 1.02 ± 0.03; with E. coli PriA helicase [5] it was 0.95 ± 0.02; with E. coli PriA helicase [11] it was 0.91 ± 0.11.
